Data from doi:10.1101/2024.03.25.586624.

Columns and labels:
[1] = molecular target: synthetic sfGFP peptide, peptide variant 14; experiment: AlphaScreen or HTRF
[2] = molecular target: synthetic sfGFP peptide, peptide variant 9; experiment: AlphaScreen or HTRF

Substance: MBP-TbtF RRE domain (domain or fragment)
- fold of the AlphaLISA signal of the wild-type TbtA leader sequence [1]: 2 fold
- AlphaLISA signal, percent of the wild-type TbtA leader sequence [2]: 25%
